For the experiment, the target named is 447-52D Fv fragment. The experiment is described as follows: fluorescence quenching of 447Fv upon titration with the peptide.

Bridge positions count the residues as written; N and C are the ends. Ends that are not written are not given here.

As a reminder, the Kd is the concentration at which binding is half-saturated. A high value points to a looser complex. Molecule CRKSIHCGPGRCFYTTGC (disulfide 1-18, 7-12) [R5A-M1 peptide (disulfide-constrained R5A mimic peptide 1)] showed a Kd of 10 nM.
